The values that follow come from US6824971 (SLOAN KETTERING INSTITUTE FOR CANCER RESEARCH, dated 2004).

B1: Smad4/DPC4 C-terminal domain, amino acids 294-552 (other)
chain: MPPHPGHYWPVHNELAFQPPISNHPAPEYWCSIAYFEMDVQVGETFKVPSSCPIVTVDGYVDPSGGDRFCLGQLSNVHRTEAIERARLHIGKGVQLECKGEGDVWVRCLSDHAVFVQSYYLDREAGRAPGDAVHKIYPSAYIKVFDLRQCHRQMQQQAATAQAAAAAQAAAVAGNIPGPGSVGGIAPAISLSAAAGIGVDDLRRLCILRMSFVKGWGPDYPRQSIKETPCWIEIHLHRALQLLDEVLHTMPIADPQPLD
notes: Construct for mammalian cells (pCMV5), Flag- or HA-tagged; also called Smad4(C); Smad4 C domain

Data set [1] deals with the molecule itself. Put plainly: co-IP of differentially tagged constructs, COS cells. The source says:
(§1) The full-length Smad4/DPC4 and Smad2, Smad4/DPC4-C-terminal domain encoding amino acids 294–552 (SEQ ID NO.:1) and the Smad2-C-terminal domain encoding amino acids 248–467 (SEQ ID NO.:3) were subcloned into the mammalian expression vector pCMV5. All Smad4/DPC4 point mutations were generated by a polymerase chain reaction (PCR)-based method and were confirmed by DNA sequencing. Mammalian COS-1 cells were transiently transfected with the indicated FLAG- and HA-tagged constructs by the DEAE-dextran method. Two days after transfection, cells were incubated with 200 pM TGF-β1 for one hour. Cells were lysed and subjected to immunoprecipitation followed by immunoblot as described. The wash buffers contained 150 mM NaCl for all immunoprecipitation experiments except for the homo-oligomerization assays of the full-length wild-type Smad4/DPC4 and point mutants, where 250 mM NaCl was employed to better differentiate the WT and mutant activities.
(§2) To assay for homo-oligomerization, mammalian COS-1 cells were transiently transfected with Flag-tagged wild-type Smad4/DPC4-C-terminal domain (WT) and HA-tagged WT or mutant constructs. For hetero-oligomerization, cells were transfected with Flag-tagged Smad2 C-terminal domain and HA-tagged Smad4/DPC4 C-terminal domain WT or mutant constructs together with constitutively active TGF-β type I receptor construct. […]

The target of data set [2] is B1. Nature of the data set: co-IP, Flag-WT with HA-mutant, COS-1 cells.
Source text: as §1, §2

In data set [3] the target is B1. Nature of the data set: co-IP, Flag-WT C-terminal domain with HA-mutant, COS-1 cells.
Source text: as §1, §2

Data set [4] concerns the target T1, Recombinant Smad4/DPC4 C-terminal domain, residues 319-552 (human).
T1 chain: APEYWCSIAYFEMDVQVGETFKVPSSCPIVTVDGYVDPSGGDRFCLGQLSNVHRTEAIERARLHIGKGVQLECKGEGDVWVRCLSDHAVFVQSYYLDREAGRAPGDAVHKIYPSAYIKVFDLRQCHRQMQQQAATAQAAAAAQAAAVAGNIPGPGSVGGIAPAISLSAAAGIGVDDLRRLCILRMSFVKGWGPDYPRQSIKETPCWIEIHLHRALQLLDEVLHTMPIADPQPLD
Nature of the data set: crystal structure, trimer (three interfaces in total). Particulars: remark: other sources report otherwise.

Data set [5] deals with the molecule itself. Put plainly: gel filtration of recombinant full-length protein. As for the experimental part:
The full-length Smad4/DPC4 proteins, both wild-type and point mutants, were overexpressed at room temperature in E.coli using a pET vector (Novagen). Smad4/DPC4 protein in the soluble fraction of the E. coli lysate was partially purified by ion exchange chromatography (Q-Sepharose) and was applied to a gel filtration column (Superdex200) in 50 mM Tris, 200 mM NaCl, 5 mM DTT, pH 8.0. Aliquots from the fractions corresponding to molecular weight standards between 440 kDa and 25 kDa were taken for immunoblots with a rabbit polyclonal antibody raised against the Smad4/DPC4-C-terminal domain. The results were visualized with the ECL Western analysis and detection system (Amersham). In addition, the WT full-length Smad4/DPC4 was also cloned as a GST-fusion protein and purified to near homogeneity over a glutathione column. The fusion protein was then cleaved with Thrombin and the. Smad4/DPC4 protein was futher purified by anion-exchange chromatography (Source 15Q column).
The fractions were visualized with Coomassie staining. […] Gel filtration fractions of partially purified wild-type and mutant Smad4/DPC4 proteins were analyzed by immunoblots with anti-Smad4/DPC4 antibody.
A general note: In gel filtration, larger molecules generally elute earlier.

For B1, the binding result in data set [1] was “binds”.

B2: Smad4/DPC4 C-terminal domain Val370Asp (other)
chain: MPPHPGHYWPVHNELAFQPPISNHPAPEYWCSIAYFEMDVQVGETFKVPSSCPIVTVDGYVDPSGGDRFCLGQLSNDHRTEAIERARLHIGKGVQLECKGEGDVWVRCLSDHAVFVQSYYLDREAGRAPGDAVHKIYPSAYIKVFDLRQCHRQMQQQAATAQAAAAAQAAAVAGNIPGPGSVGGIAPAISLSAAAGIGVDDLRRLCILRMSFVKGWGPDYPRQSIKETPCWIEIHLHRALQLLDEVLHTMPIADPQPLD
notes: HA-tagged; tumor-derived trimer interface mutation; also called V370D
As to B2, the binding result in data set [2] is “no binding”.

B3: Smad4/DPC4 C-terminal domain Gly508Ser (other)
chain: MPPHPGHYWPVHNELAFQPPISNHPAPEYWCSIAYFEMDVQVGETFKVPSSCPIVTVDGYVDPSGGDRFCLGQLSNVHRTEAIERARLHIGKGVQLECKGEGDVWVRCLSDHAVFVQSYYLDREAGRAPGDAVHKIYPSAYIKVFDLRQCHRQMQQQAATAQAAAAAQAAAVAGNIPGPGSVGGIAPAISLSAAAGIGVDDLRRLCILRMSFVKSWGPDYPRQSIKETPCWIEIHLHRALQLLDEVLHTMPIADPQPLD
notes: HA-tagged; also called G508S; developmental L3 loop mutation
Turning to B3, the binding result in data set [3] was “binds”.

B4: Smad4/DPC4 C-terminal domain Arg361Cys (other)
chain: MPPHPGHYWPVHNELAFQPPISNHPAPEYWCSIAYFEMDVQVGETFKVPSSCPIVTVDGYVDPSGGDCFCLGQLSNVHRTEAIERARLHIGKGVQLECKGEGDVWVRCLSDHAVFVQSYYLDREAGRAPGDAVHKIYPSAYIKVFDLRQCHRQMQQQAATAQAAAAAQAAAVAGNIPGPGSVGGIAPAISLSAAAGIGVDDLRRLCILRMSFVKGWGPDYPRQSIKETPCWIEIHLHRALQLLDEVLHTMPIADPQPLD
notes: HA-tagged; tumor-derived trimer interface mutation; also called R361C
As to B4, the binding result in data set [2] is recorded as “no binding”.

B5: Recombinant Smad4/DPC4 C-terminal domain, residues 319-552, O70437 319-552 (protein)
chain: APEYWCSIAYFEMDVQVGETFKVPSSCPIVTVDGYVDPSGGDRFCLGQLSNVHRTEAIERARLHIGKGVQLECKGEGDVWVRCLSDHAVFVQSYYLDREAGRAPGDAVHKIYPSAYIKVFDLRQCHRQMQQQAATAQAAAAAQAAAVAGNIPGPGSVGGIAPAISLSAAAGIGVDDLRRLCILRMSFVKGWGPDYPRQSIKETPCWIEIHLHRALQLLDEVLHTMPIADPQPLD
With B5, the buried surface area in data set [4] came to 4800 Å^2.

B6: Smad4/DPC4 full-length Gly508Ser (other)
chain: MDNMSITNTPTSNDACLSIVHSLMCHRQGGESETFAKRAIESLVKKLKEKKDELDSLITAITTNGAHPSKCVTIQRTLDGRLQVAGRKGFPHVIYARLWRWPDLHKNELKHVKYCQYAFDLKCDSVCVNPYHYERVVSPGIDLSGLTLQSNAPSSMMVKDEYVHDFEGQPSLSTEGHSIQTIQHPPSNRASTETYSTPALLAPSESNATSTANFPNIPVASTSQPASILGGSHSEGLLQIASGPQPGQQQNGFTGQPATYHHNSTTTWTGSRTAPYTPNLPHHQNGHLQHHPPMPPHPGHYWPVHNELAFQPPISNHPAPEYWCSIAYFEMDVQVGETFKVPSSCPIVTVDGYVDPSGGDRFCLGQLSNVHRTEAIERARLHIGKGVQLECKGEGDVWVRCLSDHAVFVQSYYLDREAGRAPGDAVHKIYPSAYIKVFDLRQCHRQMQQQAATAQAAAAAQAAAVAGNIPGPGSVGGIAPAISLSAAAGIGVDDLRRLCILRMSFVKSWGPDYPRQSIKETPCWIEIHLHRALQLLDEVLHTMPIADPQPLD
notes: Full-length point mutant; also called G508S
As for B6, in data set [5], the binding result is “binds”.
